Experimental data published in US20200199241A1 (Chugai, published 2020).
Changes are numbered by the printed parent chain.

B1: IgG1-F1216 (antibody)
heavy: QVQLQESGPGLVKPSETLSLTCAVSGHSISHDHAWSWVRQPPGEGLEWIGFISYSGITNYNPSLQGRVTISRDNSKNTLYLQMNSLRAEDTAVYYCARSLARTTAMDYWGEGTLVTVSSASTKGPSVFPLAPSSKSTSGGTAALGCLVKDYFPEPVTVSWNSGALTSGVHTFPAVLQSSGLYSLSSVVTVPSSSLGTQTYICNVNHKPSNTKVDKKVEPKSCDKTHTCPPCPAPELLGGPSVFLFPPKPKDTSYISRTPEVTCVVVDVSHEDPEVKFNWYVDGVEVHNAKTKPREEQYNSTYRVVSVLTVLHQDWLNGKEYKCKVSNKALPAPIEKTISKAKGQPREPQVYTLPPSRDELTKNQVSLTCLVKGFYPSDIAVEWESNGQPENNYKTTPPVLDSDGSFFLYSKLTVDKSRWQQGNVFSCSVMHEALHYHVTQKSLSLSP
light: not shown
notes: EU numbering; copies: 2 + 2
B2: IgG1-F1297 (antibody)
heavy: B1 heavy with L237R, S241K, S253L, T258E, H435D, V438T, Q440R, S442E
light: not shown
notes: EU numbering; copies: 2 + 2
B3: IgG1-F1300 (antibody)
heavy: B1 heavy with L237R, S241K, S253L, T258E, V438T, Q440K, S442D
light: not shown
notes: EU numbering; copies: 2 + 2
B4: IgG1-F1279 (antibody)
heavy: B1 heavy with L237R, S241K, S253L, T258G, Q440K, S442D
light: not shown
notes: EU numbering; copies: 2 + 2
B5: IgG1-F1287 (antibody)
heavy: B1 heavy with L237R, S241K, S253L, S256T, H435D, Q440K, S442D
light: not shown
notes: EU numbering; copies: 2 + 2
B6: IgG1-F1255 (antibody)
heavy: B1 heavy with L237R, S241K, S253L, Q313A, Q440R, S442E
light: not shown
notes: EU numbering; copies: 2 + 2
B7: IgG1-F1247 (antibody)
heavy: B1 heavy with L237R, S241K, T252V, S253L, T258E, Q440R, S442E
light: not shown
notes: EU numbering; copies: 2 + 2
B8: IgG1-F1252 (antibody)
heavy: B1 heavy with L237R, S241K, T252V, S253L, S256T, T258Q, Q440R, S442E
light: not shown
notes: EU numbering; copies: 2 + 2
B9: IgG1-F1283 (antibody)
heavy: B1 heavy with L237R, S241K, S253L, T258N, H435D, Q440R, S442E
light: not shown
notes: EU numbering; copies: 2 + 2
B10: IgG1-F1282 (antibody)
heavy: B1 heavy with L237R, S241K, S253L, T258N, Q440K, S442D
light: not shown
notes: EU numbering; copies: 2 + 2
B11: IgG1-F1289 (antibody)
heavy: B1 heavy with L237R, S241K, S253L, T258E, H435D, Q440R, S442E
light: not shown
notes: EU numbering; copies: 2 + 2
B12: IgG1-F1217 (antibody)
heavy: B1 heavy with S253T
light: not shown
notes: EU numbering; copies: 2 + 2
B13: IgG1-F1295 (antibody)
heavy: B1 heavy with L237R, S241K, S253L, T258E, V438F, Q440R, S442E
light: not shown
notes: EU numbering; copies: 2 + 2
B14: IgG1-F1261 (antibody)
heavy: B1 heavy with L237R, S241K, S253L, Q440R, S442D
light: not shown
notes: EU numbering; copies: 2 + 2
B15: IgG1-F1250 (antibody)
heavy: B1 heavy with L237R, S241K, S253L, S256T, T258Q, Q440R, S442E
light: not shown
notes: EU numbering; copies: 2 + 2
B16: IgG1-F1231 (antibody)
heavy: B1 heavy with S253L, Q440K, S442E
light: not shown
notes: EU numbering; copies: 2 + 2
B17: IgG1-F1246 (antibody)
heavy: B1 heavy with L237R, S241K, T252V, S253L, S256T, Q440R, S442E
light: not shown
notes: EU numbering; copies: 2 + 2
B18: IgG1-F1248 (antibody)
heavy: B1 heavy with L237R, S241K, T252V, S253L, S256T, T258E, Q440R, S442E
light: not shown
notes: EU numbering; copies: 2 + 2
B19: IgG1-F1284 (antibody)
heavy: B1 heavy with L237R, S241K, S253L, T258N, H435D, Q440K, S442D
light: not shown
notes: EU numbering; copies: 2 + 2
B20: IgG1-F1273 (antibody)
heavy: B1 heavy with L237R, S241K, S253L, T258Q, Q440K, S442D
light: not shown
notes: EU numbering; copies: 2 + 2
B21: IgG1-F1291 (antibody)
heavy: B1 heavy with L237R, S241K, S253L, H435D
light: not shown
notes: EU numbering; copies: 2 + 2
B22: IgG1-F1294 (antibody)
heavy: B1 heavy with L237R, S241K, S253L, T258E, V438T, Q440R, S442E
light: not shown
notes: EU numbering; copies: 2 + 2
B23: IgG1-F1274 (antibody)
heavy: B1 heavy with L237R, S241K, S253L, T258Q, H435D, Q440R, S442E
light: not shown
notes: EU numbering; copies: 2 + 2
B24: IgG1-F1267 (antibody)
heavy: B1 heavy with L237R, S241K, S253L, S256A, Q440R, S442E
light: not shown
notes: EU numbering; copies: 2 + 2
B25: IgG1-F1249 (antibody)
heavy: B1 heavy with L237R, S241K, S253L, T258Q, Q440R, S442E
light: not shown
notes: EU numbering; copies: 2 + 2
B26: IgG1-F1243 (antibody)
heavy: B1 heavy with L237R, S241K, S253L, S256T, Q440R, S442E
light: not shown
notes: EU numbering; copies: 2 + 2
B27: IgG1-F1256 (antibody)
heavy: B1 heavy with L237R, S241K, S253L, Q313H, Q440R, S442E
light: not shown
notes: EU numbering; copies: 2 + 2
B28: IgG1-F1276 (antibody)
heavy: B1 heavy with L237R, S241K, S253L, T258A, Q440K, S442D
light: not shown
notes: EU numbering; copies: 2 + 2
B29: IgG1-F1280 (antibody)
heavy: B1 heavy with L237R, S241K, S253L, T258G, H435D, Q440R, S442E
light: not shown
notes: EU numbering; copies: 2 + 2
B30: IgG1-F1263 (antibody)
heavy: B1 heavy with L237R, S241K, S253L, Q440K, S442D
light: not shown
notes: EU numbering; copies: 2 + 2
B31: IgG1-F1229 (antibody)
heavy: B1 heavy with S253L, I255V
light: not shown
notes: EU numbering; copies: 2 + 2
B32: IgG1-F1245 (antibody)
heavy: B1 heavy with L237R, S241K, S253L, S256T, T258E, Q440R, S442E
light: not shown
notes: EU numbering; copies: 2 + 2
B33: IgG1-F1253 (antibody)
heavy: B1 heavy with L237R, S241K, S253L, T309A, Q440R, S442E
light: not shown
notes: EU numbering; copies: 2 + 2
B34: IgG1-F1296 (antibody)
heavy: B1 heavy with L237R, S241K, S253L, T258E, H435D, V438Y, Q440R, S442E
light: not shown
notes: EU numbering; copies: 2 + 2
B35: IgG1-F1230 (antibody)
heavy: B1 heavy with S253L, Q440R, S442D
light: not shown
notes: EU numbering; copies: 2 + 2
B36: IgG1-F1299 (antibody)
heavy: B1 heavy with L237R, S241K, S253L, T258E, V438Y, Q440K, S442D
light: not shown
notes: EU numbering; copies: 2 + 2
B37: IgG1-F1218 (antibody)
heavy: B1 heavy with S253V
light: not shown
notes: EU numbering; copies: 2 + 2
B38: IgG1-F1264 (antibody)
heavy: B1 heavy with L237R, S241K, S253L, T258A, Q440R, S442E
light: not shown
notes: EU numbering; copies: 2 + 2
B39: IgG1-F1293 (antibody)
heavy: B1 heavy with L237R, S241K, S253L, T258E, V438Y, Q440R, S442E
light: not shown
notes: EU numbering; copies: 2 + 2
B40: IgG1-F1278 (antibody)
heavy: B1 heavy with L237R, S241K, S253L, T258A, H435D, Q440K, S442D
light: not shown
notes: EU numbering; copies: 2 + 2
B41: IgG1-F1281 (antibody)
heavy: B1 heavy with L237R, S241K, S253L, T258G, H435D, Q440K, S442D
light: not shown
notes: EU numbering; copies: 2 + 2
B42: IgG1-F1275 (antibody)
heavy: B1 heavy with L237R, S241K, S253L, T258Q, H435D, Q440K, S442D
light: not shown
notes: EU numbering; copies: 2 + 2
B43: IgG1-F1257 (antibody)
heavy: B1 heavy with L237R, S241K, S253L, T309A, Q313A, Q440R, S442E
light: not shown
notes: EU numbering; copies: 2 + 2
B44: IgG1-F1251 (antibody)
heavy: B1 heavy with L237R, S241K, T252V, S253L, T258Q, Q440R, S442E
light: not shown
notes: EU numbering; copies: 2 + 2
B45: IgG1-F1286 (antibody)
heavy: B1 heavy with L237R, S241K, S253L, S256T, H435D, Q440R, S442E
light: not shown
notes: EU numbering; copies: 2 + 2
B46: IgG1-F1232 (antibody)
heavy: B1 heavy with S253L, Q440K, S442D
light: not shown
notes: EU numbering; copies: 2 + 2
B47: IgG1-F1277 (antibody)
heavy: B1 heavy with L237R, S241K, S253L, T258A, H435D, Q440R, S442E
light: not shown
notes: EU numbering; copies: 2 + 2
B48: IgG1-F1268 (antibody)
heavy: B1 heavy with L237R, S241K, S253L, H435D, Q440R, S442E
light: not shown
notes: EU numbering; copies: 2 + 2
B49: IgG1-F1260 (antibody)
heavy: B1 heavy with L237R, S241K, S253L, T309Q, Q313H, Q440R, S442E
light: not shown
notes: EU numbering; copies: 2 + 2
B50: IgG1-F1298 (antibody)
heavy: B1 heavy with L237R, S241K, S253L, T258E, H435D, V438F, Q440R, S442E
light: not shown
notes: EU numbering; copies: 2 + 2
B51: IgG1-F1266 (antibody)
heavy: B1 heavy with L237R, S241K, S253L, T258N, Q440R, S442E
light: not shown
notes: EU numbering; copies: 2 + 2
B52: IgG1-F1265 (antibody)
heavy: B1 heavy with L237R, S241K, S253L, T258G, Q440R, S442E
light: not shown
notes: EU numbering; copies: 2 + 2
B53: IgG1-F1244 (antibody)
heavy: B1 heavy with L237R, S241K, S253L, T258E, Q440R, S442E
light: not shown
notes: EU numbering; copies: 2 + 2
B54: IgG1-F1259 (antibody)
heavy: B1 heavy with L237R, S241K, S253L, T309Q, Q313A, Q440R, S442E
light: not shown
notes: EU numbering; copies: 2 + 2
B55: IgG1-F1258 (antibody)
heavy: B1 heavy with L237R, S241K, S253L, T309A, Q313H, Q440R, S442E
light: not shown
notes: EU numbering; copies: 2 + 2
B56: IgG1-F1285 (antibody)
heavy: B1 heavy with L237R, S241K, S253L, S256T, Q440K, S442D
light: not shown
notes: EU numbering; copies: 2 + 2
B57: IgG1-F1292 (antibody)
heavy: B1 heavy with L237R, S241K, S253L, Y254M, H435D, Y436W, Q440R, S442E
light: not shown
notes: EU numbering; copies: 2 + 2
B58: IgG1-F1262 (antibody)
heavy: B1 heavy with L237R, S241K, S253L, Q440K, S442E
light: not shown
notes: EU numbering; copies: 2 + 2
B59: IgG1-F1271 (antibody)
heavy: B1 heavy with L237R, S241K, S253L, S256A, H435D, Q440R, S442E
light: not shown
notes: EU numbering; copies: 2 + 2
B60: IgG1-F1290 (antibody)
heavy: B1 heavy with L237R, S241K, S253L, T258E, H435D, Q440K, S442D
light: not shown
notes: EU numbering; copies: 2 + 2

target: T1, soluble human FcRn complexed with β2-microglobulin (human, UniProt P61769 21-119, limits assumed); experiment: Biacore SPR, pH 7.0;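 also: test antibodies captured on a Protein L chip with human FcRn flowed over as analyte, KD obtained as the ratio of dissociation to association rate constants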
T1 construct: also called hFcRn
T1 sequence (chain, as listed by the source limits assumed, chain 1 of 2): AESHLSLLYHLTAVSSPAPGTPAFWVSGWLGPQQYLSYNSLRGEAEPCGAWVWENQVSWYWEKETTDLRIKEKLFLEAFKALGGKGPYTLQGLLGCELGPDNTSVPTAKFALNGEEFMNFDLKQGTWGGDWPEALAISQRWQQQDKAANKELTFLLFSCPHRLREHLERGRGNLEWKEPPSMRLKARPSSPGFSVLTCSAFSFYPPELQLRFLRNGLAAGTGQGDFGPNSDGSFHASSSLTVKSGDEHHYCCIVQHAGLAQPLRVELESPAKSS
T1 sequence (P61769 21-119 limits assumed, chain 2 of 2): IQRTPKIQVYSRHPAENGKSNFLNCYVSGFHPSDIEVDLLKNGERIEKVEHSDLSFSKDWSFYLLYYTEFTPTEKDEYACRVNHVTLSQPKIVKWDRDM

Row | Binder | Kd [nM]
1 | B1 | 1160
2 | B2 | 250
3 | B3 | 163
4 | B4 | 123
5 | B5 | 150
6 | B6 | 111
7 | B7 | 145
8 | B8 | 233
9 | B9 | 134
10 | B10 | 76.9
11 | B11 | 333
12 | B12 | 1140
13 | B13 | 98.4
14 | B14 | 135
15 | B15 | 166
16 | B16 | 97.3
17 | B17 | 173
18 | B18 | 120
19 | B19 | 112
20 | B20 | 153

Row | Binder | Kd [nM]
21 | B21 | 151
22 | B22 | 200
23 | B23 | 248
24 | B24 | 150
25 | B25 | 206
26 | B26 | 125
27 | B27 | 156
28 | B28 | 102
29 | B29 | 209
30 | B30 | 124
31 | B31 | 2810
32 | B32 | 82
33 | B33 | 112
34 | B34 | 227
35 | B35 | 112
36 | B36 | 150
37 | B37 | 251
38 | B38 | 127
39 | B39 | 161
40 | B40 | 140

Row | Binder | Kd [nM]
41 | B41 | 174
42 | B42 | 209
43 | B43 | 78.1
44 | B44 | 277
45 | B45 | 157
46 | B46 | 97.9
47 | B47 | 169
48 | B48 | 200
49 | B49 | 65.3
50 | B50 | 147
51 | B51 | 99.9
52 | B52 | 157
53 | B53 | 102
54 | B54 | 44.6
55 | B55 | 105
56 | B56 | 93.6
57 | B57 | 424
58 | B58 | 126
59 | B59 | 205
60 | B60 | 111
